Source: patent publication US20250218531A1
pKd: −log10 of the molar value. Values joined by “and” are separate entries in the source; they are usually repeats but may differ in a detail not shown here. Equal entries are not always repeated. Where two headings read alike, the source gives them in different places.

Columns and labels:
[1] = target: human epidermal growth factor receptor 2 (HER2) extracellular domain (human) (UniProt P04626); assay: SPR, table row 12
[2] = target: human vascular endothelial growth factor A (VEGF-A) (human) (UniProt P15692); assay: SPR, table row 12
Sequence of human vascular endothelial growth factor A (VEGF-A) (human) (P15692 220-313 limits assumed): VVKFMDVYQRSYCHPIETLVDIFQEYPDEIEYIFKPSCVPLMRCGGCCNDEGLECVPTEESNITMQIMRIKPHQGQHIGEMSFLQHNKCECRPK

[3] = target: human epidermal growth factor receptor 2 (HER2) extracellular domain (human) (UniProt P04626); assay: SPR, table row 20
[4] = target: human vascular endothelial growth factor A (VEGF-A) (human) (UniProt P15692); assay: SPR, table row 20
[5] = target: human vascular endothelial growth factor A (VEGF-A) (human) (UniProt P15692); assay: SPR, table row 18
[6] = target: human vascular endothelial growth factor A (VEGF-A) (human) (UniProt P15692)
[7] = target: human vascular endothelial growth factor A (VEGF-A) (human) (UniProt P15692); assay: SPR, table row 17
[8] = target: human vascular endothelial growth factor A (VEGF-A) (human) (UniProt P15692); assay: SPR, table row 15
[9] = target: human epidermal growth factor receptor 2 (HER2) extracellular domain (human) (UniProt P04626); assay: SPR
[10] = target: human vascular endothelial growth factor A (VEGF-A) (human) (UniProt P15692); assay: SPR
[11] = target: human epidermal growth factor receptor 2 (HER2) extracellular domain (human) (UniProt P04626); assay: not stated (FIG. 6A)
[12] = target: human vascular endothelial growth factor A (VEGF-A) (human) (UniProt P15692); assay: not stated (FIG. 6A)

Work on Trastuzumab bH1 (antibody) yielded a pKd [1] of 8.49, a koff [1] of 6.2e-05 s⁻¹ and a kon [1] of 19300 M⁻¹ s⁻¹. For the same substance, the pKd [2] was 7.74, the koff [2] was 0.000211 s⁻¹ and the kon [2] was 11500 M⁻¹ s⁻¹. The pKd [3] was 7.99, the koff [3] was 9.72e-05 s⁻¹ and the kon [3] was 9470 M⁻¹ s⁻¹. It also gave a pKd [4] of 7.62, a koff [4] of 0.00026 s⁻¹ and a kon [4] of 10800 M⁻¹ s⁻¹. For the same substance, the pKd [5] was 7.63, the koff [5] was 0.00025 s⁻¹ and the kon [5] was 10800 M⁻¹ s⁻¹. The pKd [6] was 7.61 and 7.58 and 7.51, the koff [6] was 0.00027 s⁻¹ and 0.000282 s⁻¹ and 0.000342 s⁻¹ and the kon [6] was 10900 M⁻¹ s⁻¹ and 10800 M⁻¹ s⁻¹ and 11000 M⁻¹ s⁻¹. For the same substance, the pKd [7] was 7.64, the koff [7] was 0.00028 s⁻¹ and the kon [7] was 12300 M⁻¹ s⁻¹. The pKd [8] was 7.66, the koff [8] was 0.000254 s⁻¹ and the kon [8] was 11700 M⁻¹ s⁻¹. It also gave a pKd [9] of 7.48, a pKd [10] of 7.63 and a pKd [11] of 7.59. It also gave a pKd [12] of 6.52.
